Measured values: WO2005085862A1 (dated 2005)

Biological target: T1, human Glucose-regulated protein 78 (Grp78) (human, UniProt P11021 19-654)
T1 construct: whole, on cells; also called Grp78/Bip; cell surface localized Grp78
Assay: western blot of whole cell extracts with purified scFv

T1 sequence (P11021 19-654): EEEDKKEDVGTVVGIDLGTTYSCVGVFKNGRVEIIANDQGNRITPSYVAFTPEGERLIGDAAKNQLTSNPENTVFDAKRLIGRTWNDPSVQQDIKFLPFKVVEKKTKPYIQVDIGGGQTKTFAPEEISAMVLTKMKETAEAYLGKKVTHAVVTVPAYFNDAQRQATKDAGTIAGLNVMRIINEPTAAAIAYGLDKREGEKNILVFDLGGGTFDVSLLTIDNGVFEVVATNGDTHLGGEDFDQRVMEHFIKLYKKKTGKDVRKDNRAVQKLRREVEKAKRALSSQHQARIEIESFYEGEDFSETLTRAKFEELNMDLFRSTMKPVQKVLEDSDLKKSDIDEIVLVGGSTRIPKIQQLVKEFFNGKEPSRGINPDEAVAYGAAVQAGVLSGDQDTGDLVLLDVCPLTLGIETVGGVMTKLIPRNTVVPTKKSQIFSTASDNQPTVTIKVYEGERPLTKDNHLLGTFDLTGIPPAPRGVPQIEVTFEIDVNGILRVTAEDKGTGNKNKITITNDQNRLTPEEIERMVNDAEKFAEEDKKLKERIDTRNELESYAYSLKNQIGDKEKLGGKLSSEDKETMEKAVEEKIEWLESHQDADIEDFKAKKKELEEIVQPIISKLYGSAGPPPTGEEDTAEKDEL

binding result: binds
B1: Grp78-scFv clone-19 (scFv)
scFv: EVQLVESGGGVVQPGRSLRLSCAASGFTFSSYGMHWVRQAPGKGLEWVAVISYDGSNKYYADSVKGRFTISRDNSKNTLYLQMNSLRAEDTAVYYCARKINSTKEVWGQGTLVTVSSGGGGSGGGGSGGSALQSVLTQPPSASGTPGQRVTISCSGSSSNIGSNYVYWYQQLPGTAPKLLIYRNNQRPSGVPDRFSGSKSGTSASLAISGLRSEDEADYYCAAWDDSLNPLVVFGGGTKLTVLGAAAHHHHHHGAAEQN
notes: Tested as soluble scFv made in E. coli HB2151 and purified on a Ni column, apparent size about 29 kDa; It was detected through its c-myc tag with mAb 9E10; also called anti-Grp78 scFv-19; scFv-19
